To fix the notation:
B1: Hairpin Ribozyme (parent)
chain: GUCCUCUUUCACGUGCGCGUGAAAGAGAGAAGUGAACCAGAGAAACACACGUUGUGGUAUAUUACCUGGUA

Variants of B1 are the subject of the series. The series is described as follows: self-cleavage, relative activity (ratio to wild type); higher = more cleavage; co-transcriptional.
Consider A23G A24G, for which the self-cleavage worked out at 0.715.
C3G A45U: the self-cleavage was determined as 0.122.
In the case of U2A G25C it was 0.171; in that of C4A G34A, 0.37.
The value for U58C U70G was 0.759; that for A36U C50G was 0.0987.
Take U63C G68C: the self-cleavage is 0.133.
In the case of C3A A47U it was 0.112; in that of G29U G56U, 0.143.
Turning to C3U C48G, the self-cleavage is 0.159.
The value for A23G U58A was 0.662; that for C16U A24C was 1.12.
On to G1A C18G, for which the self-cleavage was 0.0949.
In the case of A23U U53C it was 0.935; in that of A23U C38G, 0.167.
In the case of G1U U58C it was 0.0791; in that of U7C C46A, 0.224.
For A23U G68A, the self-cleavage was found to be 0.184.
Take C38G G68U: the self-cleavage came to 0.514.
The value for C12U C37A was 0.282; that for A59C A71G was 0.119; that for G34C U70G was 1.23.
In the case of G25U A71U it was 0.575; in that of C48U G56C, 0.104; in that of G19U C50A, 0.329.
Take A26C A43G: the self-cleavage is 0.144.
On to U9C U52C, for which the self-cleavage came to 0.6.
In the case of U9C U52G it was 0.74; in that of A23C A59G, 0.143; in that of C46U A47G, 0.0613.
The value for G27C C38U was 0.131.
The value for G27C C38G was 0.0571; that for U5A U52G was 0.392.
As to C10G A11G, the self-cleavage came out at 0.655.
The value for C6G A26U was 0.198; that for A36C U62G was 0.0267.
The value for G40C U63C was 0.164.
The value for C12A U53G was 0.587.
Turning to C12A C66A, the self-cleavage worked out at 0.259.
The value for G69U U70C was 0.304; that for U2C G15U was 0.117; that for U8A G13A was 0.637.
In the case of A26C G40A it was 0.295; in that of A28C G29A, 0.199.
In the case of C12A U55A it was 0.288; in that of G19U A49U, 0.158.
G1A U9C: the self-cleavage worked out at 0.167.
In the case of C12A A30G it was 0.206.
In the case of C38U C50G it was 0.0694; in that of A30C A61G, 0.12.
A23C U52G: the self-cleavage was 0.489.
In the case of C50A U70A it was 0.303; in that of A11U U62C, 0.187; in that of A41G A59C, 0.436.
On to C37U A45C, for which the self-cleavage is 0.109.
In the case of U14C G21C it was 0.883.
The value for G19A U60C was 1.05; that for G1A U55A was 0.229; that for C10G C50G was 0.142.
The value for C48U U58A was 0.214; that for C3A U20C was 0.728; that for C6A C37G was 0.287.
Regarding C50A U62C, the self-cleavage is 0.147.
In the case of U52A G69U it was 0.325.
Regarding A44C C46A, the self-cleavage was determined as 0.141.
C65G G68C: the self-cleavage turned out to be 0.151.
The value for G34C C38A was 0.563; that for A23G U62C was 0.43.
The value for G25C G68U was 0.206.
The value for G42C A49C was 0.215; that for A30G G69C was 0.0841; that for U33G A44C was 0.0874.
As to A11C G54U, the self-cleavage worked out at 0.583.
The value for U9A U67C was 0.174.
Turning to U7G U8A, the self-cleavage stood at 0.942.
Consider C37A G69U, for which the self-cleavage worked out at 0.777.
The value for A11U A64C was 0.175; that for U20A A47G was 0.185; that for A26C A71C was 1.08.
The value for C46A A49C was 0.156; that for A24U A44U was 0.123.
As for A30U G32U, the self-cleavage worked out at 0.0889.
As to U9G A26U, the self-cleavage stood at 0.477.
U14A G15U: the self-cleavage came to 1.17.
As to A36U C38A, the self-cleavage was 0.0871.
In the case of G21A U52C it was 0.817; in that of U14A A28G, 1.2.
In the case of U7C U62C it was 0.196; in that of U52G G57C, 0.216; in that of U8G A35G, 0.667.
The value for G19C C66G was 0.245; that for G17U G29U was 0.128; that for G27U C48U was 0.099.
Turning to A31C A44U, the self-cleavage worked out at 0.109.
The value for C50G A59G was 0.211.
In the case of G27A U67A it was 0.0995; in that of C48A A71G, 0.19; in that of G19C G68C, 0.222.
For the variant G13C A26G, the self-cleavage came to 0.492.
In the case of A30C G56A it was 0.194.
The value for G51A G54U was 0.649.
On to G32C U70C, for which the self-cleavage worked out at 0.234.
The value for U20A G25U was 0.529; that for G42C A43U was 0.106; that for A35G U62C was 0.338.
The value for G27A G57U was 0.157; that for G13U C66A was 0.176; that for U2A C18G was 0.212.
In the case of C6G G51A it was 0.682; in that of G15C G40C, 0.125; in that of U62C U63G, 0.228.
Take A36U A47G: the self-cleavage is 0.172.
Consider C46G U70G, for which the self-cleavage came out at 0.149.
The value for C46A C50U was 0.111; that for C12U A35U was 0.743.
The value for G57C U63C was 0.272; that for A47U U53C was 0.0703; that for C16A A43C was 0.116.
The value for C3A U70C was 0.675; that for C3U G21U was 0.472; that for G19A A23G was 0.948.
With U9A A35C, the self-cleavage came to 0.69.
In the case of U7C A30C it was 0.121; in that of C18U A64G, 0.71.
For the variant U7G G54C, the self-cleavage was determined as 0.41.
The value for A47C G51A was 0.303; that for U63C C65A was 0.106.
Regarding G29U C66G, the self-cleavage turned out to be 0.233.
On to G19A G29U, for which the self-cleavage worked out at 0.21.
Consider A49C U62G, for which the self-cleavage is 0.225.
The value for C16A G42C was 0.304; that for G56C U60C was 0.156.
The value for U20A U33C was 0.186; that for G1C A35U was 0.254; that for U5C C46A was 0.139.
On to A26C A61G, for which the self-cleavage was 0.0543.
The value for U62G A71U was 0.367; that for C4G A35C was 0.16; that for A24C A59U was 0.204.
The value for G13U U55C was 0.254; that for C12G U62G was 0.21; that for A28G G54C was 0.432.
The value for C10G A22G was 0.649; that for A49U U58G was 0.15; that for G32C C50G was 0.14.
In the case of U14G U58G, the self-cleavage is 0.464.
Consider A35C C50A, for which the self-cleavage turned out to be 0.364.
The value for C46U G54A was 0.237; that for C18G G40A was 0.344; that for A24U C65A was 0.734.
The value for C16A A24G was 0.763; that for C3A C46A was 0.219.
As to U9G G17C, the self-cleavage is 0.379.
In the case of U5A U33A it was 0.145; in that of C16G G40C, 0.143.
In the case of C10G G19A it was 0.64.
In the case of C37G G68C it was 0.131; in that of C18U A30C, 0.21; in that of G19U A64G, 0.539.
Turning to G15C G69A, the self-cleavage stood at 0.414.
The value for A23G A35U was 0.626; that for G21C C66G was 0.159.
Regarding A41G G42A, the self-cleavage was determined as 0.282.
Consider A23G A41C, for which the self-cleavage came to 1.19.
In the case of G32U G40C it was 0.0975; in that of A26C U62A, 0.269.
The value for U8G C10G was 0.676.

Values taken from the RNAGym collection of RNA variant scans (doi:10.7554/elife.80360).
